{"source": "patent US20220332804A1", "about": "(CSL INNOVATION, published 2022)", "assay_in_all_cases": "SPR, KD relative to WT C2;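 note: biacore SPR at 37 °C, anti-C2 mAbs captured on anti-human IgG chips with alanine or serine point mutants of C2 as analyte, KD from 1:1 fit compared with wild-type C2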", "key": {"human C2 H435A": {"target": "T1, human C2 H435A (human, UniProt P06681 21-752)", "T1 sequence": "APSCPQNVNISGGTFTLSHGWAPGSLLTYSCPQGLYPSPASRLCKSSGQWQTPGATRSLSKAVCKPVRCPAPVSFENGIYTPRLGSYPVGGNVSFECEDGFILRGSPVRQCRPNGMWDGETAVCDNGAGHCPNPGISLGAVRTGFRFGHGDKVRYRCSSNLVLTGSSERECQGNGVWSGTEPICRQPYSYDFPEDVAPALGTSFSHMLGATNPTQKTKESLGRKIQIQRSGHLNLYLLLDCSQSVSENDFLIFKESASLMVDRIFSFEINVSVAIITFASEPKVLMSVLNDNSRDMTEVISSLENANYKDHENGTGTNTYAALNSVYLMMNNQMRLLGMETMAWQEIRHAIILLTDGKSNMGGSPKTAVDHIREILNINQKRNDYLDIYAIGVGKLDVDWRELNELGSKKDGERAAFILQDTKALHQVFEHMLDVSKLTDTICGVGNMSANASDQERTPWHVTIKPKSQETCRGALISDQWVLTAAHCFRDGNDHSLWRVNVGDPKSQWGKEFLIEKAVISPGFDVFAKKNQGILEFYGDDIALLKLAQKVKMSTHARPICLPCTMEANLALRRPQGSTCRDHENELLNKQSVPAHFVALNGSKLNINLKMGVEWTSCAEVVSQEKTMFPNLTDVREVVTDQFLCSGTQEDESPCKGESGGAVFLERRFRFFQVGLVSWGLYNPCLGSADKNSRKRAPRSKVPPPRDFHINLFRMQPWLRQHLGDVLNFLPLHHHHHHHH", "protocol": "(§1) Surface plasmon resonance (SPR, Biacore) was used for all binding affinity analyses. In brief, goat anti-human IgG was directly immobilised onto the carboxymethyl dextran surface of CM5 sensorchips to approximately 12,000 RU using standard NHS/EDC chemistry at pH 5. The immobilised antibody surface was pre-conditioned with ten injections of polyclonal human IgG (Privigen 60 s) prepared at 1 μg/mL. Ligands (anti-C2 mAbs) were captured at the beginning of each cycle as described below. An adjacent spot or flow cell in which only Polyclonal IgG was capture was used as a reference surface. The goat anti-human IgG Fc antibody surface was regenerate in 100 mM H3PO4, injected for 45 seconds at the end of each cycle. Experiments were performed at 37° C. and the flow rate of each experiment was kept constant at 30 μL/min.\n(§2) Sensogram data was double-referenced against a reference anti-IgG surface (i.e. minus anti-C2 mAb) and blank buffer injections obtained within each experiment. The binding data was fit to 1:1 (kinetic or steady-state) model using local Rmax and null refraction index (RI=0) when appropriate. Buffers and solutions were filtered (0.22 μm) prior to use."}, "human C2 D441A": {"target": "T2, human C2 D441A (human, UniProt P06681 21-752)", "T2 sequence": "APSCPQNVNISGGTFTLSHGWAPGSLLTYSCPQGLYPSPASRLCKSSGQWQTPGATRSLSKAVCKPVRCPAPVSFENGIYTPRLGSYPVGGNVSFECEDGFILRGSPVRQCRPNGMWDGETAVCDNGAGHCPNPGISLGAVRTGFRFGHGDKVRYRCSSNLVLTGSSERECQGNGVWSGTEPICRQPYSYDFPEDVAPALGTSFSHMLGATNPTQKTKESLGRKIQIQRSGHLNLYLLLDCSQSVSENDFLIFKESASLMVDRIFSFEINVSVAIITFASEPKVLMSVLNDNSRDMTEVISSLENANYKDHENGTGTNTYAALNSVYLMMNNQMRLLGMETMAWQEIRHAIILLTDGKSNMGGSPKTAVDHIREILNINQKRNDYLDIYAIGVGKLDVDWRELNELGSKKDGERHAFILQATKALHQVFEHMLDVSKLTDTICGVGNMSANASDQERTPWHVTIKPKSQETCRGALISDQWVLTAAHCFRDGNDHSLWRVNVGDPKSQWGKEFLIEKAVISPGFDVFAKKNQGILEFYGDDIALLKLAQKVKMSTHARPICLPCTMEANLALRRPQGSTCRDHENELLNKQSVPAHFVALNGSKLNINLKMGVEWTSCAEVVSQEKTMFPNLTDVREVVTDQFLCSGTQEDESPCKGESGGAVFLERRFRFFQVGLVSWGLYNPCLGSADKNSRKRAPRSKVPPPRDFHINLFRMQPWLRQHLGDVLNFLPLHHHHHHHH", "protocol": "as §1, §2"}, "human C2 A444S": {"target": "T3, human C2 A444S (human, UniProt P06681 21-752)", "T3 sequence": "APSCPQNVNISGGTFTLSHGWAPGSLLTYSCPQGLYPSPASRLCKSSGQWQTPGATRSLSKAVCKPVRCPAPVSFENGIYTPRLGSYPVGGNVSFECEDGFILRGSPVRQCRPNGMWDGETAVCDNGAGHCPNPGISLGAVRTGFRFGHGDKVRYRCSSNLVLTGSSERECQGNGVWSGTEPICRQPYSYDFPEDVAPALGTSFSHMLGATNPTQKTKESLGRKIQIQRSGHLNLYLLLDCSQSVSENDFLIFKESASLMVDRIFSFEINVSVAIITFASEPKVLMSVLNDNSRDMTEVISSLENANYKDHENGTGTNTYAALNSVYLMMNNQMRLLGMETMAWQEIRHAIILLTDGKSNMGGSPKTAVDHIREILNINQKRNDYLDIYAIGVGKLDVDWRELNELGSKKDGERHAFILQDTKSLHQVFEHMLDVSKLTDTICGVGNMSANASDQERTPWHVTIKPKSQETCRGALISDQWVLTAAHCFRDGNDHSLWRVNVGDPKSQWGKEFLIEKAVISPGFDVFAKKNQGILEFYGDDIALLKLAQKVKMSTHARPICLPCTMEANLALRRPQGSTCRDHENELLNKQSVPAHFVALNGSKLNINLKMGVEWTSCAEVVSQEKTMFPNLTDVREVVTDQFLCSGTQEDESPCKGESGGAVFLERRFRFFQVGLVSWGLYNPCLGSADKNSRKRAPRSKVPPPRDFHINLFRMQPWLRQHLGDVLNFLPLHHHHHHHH", "protocol": "as §1, §2"}, "human C2 D269A": {"target": "T4, human C2 D269A (human, UniProt P06681 21-752)", "T4 sequence": "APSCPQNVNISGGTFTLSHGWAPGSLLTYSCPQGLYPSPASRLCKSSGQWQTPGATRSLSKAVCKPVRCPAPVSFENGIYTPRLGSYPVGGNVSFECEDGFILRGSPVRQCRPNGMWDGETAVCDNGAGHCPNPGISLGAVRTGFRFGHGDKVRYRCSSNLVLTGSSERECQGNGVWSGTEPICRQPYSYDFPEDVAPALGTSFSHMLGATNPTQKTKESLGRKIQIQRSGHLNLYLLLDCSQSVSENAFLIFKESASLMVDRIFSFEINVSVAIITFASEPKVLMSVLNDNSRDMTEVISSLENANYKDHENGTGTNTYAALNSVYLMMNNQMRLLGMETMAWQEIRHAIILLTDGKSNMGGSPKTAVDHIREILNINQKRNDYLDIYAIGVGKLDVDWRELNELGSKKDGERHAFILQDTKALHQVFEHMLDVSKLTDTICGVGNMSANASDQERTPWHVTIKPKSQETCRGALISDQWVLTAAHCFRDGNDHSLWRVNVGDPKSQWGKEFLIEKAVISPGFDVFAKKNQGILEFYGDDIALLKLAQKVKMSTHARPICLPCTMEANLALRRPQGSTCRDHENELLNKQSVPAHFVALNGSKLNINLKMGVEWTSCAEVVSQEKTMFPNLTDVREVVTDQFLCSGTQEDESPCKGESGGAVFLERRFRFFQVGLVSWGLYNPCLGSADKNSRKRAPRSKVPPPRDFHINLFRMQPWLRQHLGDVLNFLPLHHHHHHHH", "protocol": "as §1, §2"}}}
{"binder": "RF16-242 (antibody, human IgG4 S228P, lambda, V domains shown, pH-dependent anti-C2 antibody from a phage display library) VH: EVQLLQSGAEVKKPGESLKISCKGSGYSFTSYWIGWVRQMPGKGLEWMGIIYPGDSDTRYSPSFQGQVTISADKSISTAYLQWSSLKASDTAMYYCARRGHYGDYFDYWGQGTLVTVSS VL: SYELTQPPSVSVSPGQTARITCSGDALPKKYAYWYHQKSGQAPVLVIYEDRRRPSEIPERFSGSSSGTMATLTITGAQVEDEGVYFCYSRDRAGNQRVFGGGTQLTVLG", "values": [{"measurement": "Fold diff", "setting": "human C2 H435A", "value": 9, "unit": "fold"}, {"measurement": "Fold diff", "setting": "human C2 D441A", "value": 16, "unit": "fold"}, {"measurement": "Fold diff", "setting": "human C2 A444S", "value": 3, "unit": "fold"}, {"measurement": "Fold diff", "setting": "human C2 D269A", "value": 2, "unit": "fold"}]}
